# Source: the DeepSol protein solubility set
# Experiment: soluble on expression in E. coli; label from the status in PepcDB or PDB records
row,Sequence,soluble on expression in E. coli
1,MIIKIGTDRFWVKASNIERWAEILKSLPKKIPCSSKKDIARDYLGYKVDESGRIVNADEVYGLFGAEKDKDSLTIVGCNFIKEIEGGYELTEGAIELVERFKHNEEWEKVLGSQLLKYSIRIRTIAYAMLNGGYLYFEKGYMENFAKAYITLNDKKFYVFSSKPDEMNINSLMKENQSKILGDFWRKELDIGDGEEIEFRGVNKDYPSLGSMSTYLKIPMLLFDYLGWIVESEDGRYVLDKHKIKEDAGIDVYESLVNEADVDDIEILHKLIKEYSDARGFFPIGIVGSILKKKIDSENSMAEEQWIDHYFVTGINKGKFIIKDHEQGQPRHGRGLLGKKDYQLIKLEIRD,not soluble
2,MIIQCQVKSVQPLATHTYQILLQPEHAVAYQAGQYLMVVMGEKDKRPFSLASSPCRSNGELELHIGAADHSAFAHQVVEKFQQAHLNQTWVEVDVPHGNAALQESERPLLLIAGGTGFSYVRSILDHCLSQGKTQPIYLYWGARDAAQLYALNELQELAKQHAHLQVVPVVEQAQDDWAGKVGNVLQAINNDFASLEAFDIYIAGRFEMAGAAREQFTQNKQARRDRMFADAYAFI,not soluble
3,MIIYKDIFSNDELLSDAYDAKLVDDVIYEADCAMVNVGGDNIDIGANPSAEGGDDDVEEGAEMVNNVVHSFRLQQTAFDKKSFLTYIKGYMKAVKAKLQETNPEEVPKFEKGAQTYVKKVIGSFKDWEFFTGESMDPDAMVVMLNYREDGTTPFVAIWKHGIVEEKI,soluble
4,MIKIGVITMALLSFLNAGWFSLLFGSNPDPISIPIDLSQAGSVVEREVKIEETWAYDLFLEFAVLDRKEDGGLDGKKVRKFLGFNSYNPYDGKKLGFGDYEQAKRKLGDLIDETYDCDGTIAPIKLTIHQINKDNTKKLIVDNLYMTKGYSSGAYERDIAIISLDKGKYIFRIENIEAFQEMNARKVNFIIRIHKRDK,not soluble
5,MIKKCLFPAAGYGTRFLPITKTIPKEMLPIVDKPLIQYAVEEAMEAGCEVMAIVTGRNKRSLEDYFDTSYEIEHQIQGTNKENALKSIRNIIEKCCFSYVRQKQMKGLGHAILTGEALIGNEPFAVILADDLCISHDHPSVLKQMTSLYQKYQCSIVAIEEVALEEVSKYGVIRGEWLEEGVYEIKDMVEKPNQEDAPSNLAVIGRYILTPDIFEILSETKPGKNNEIQITDALRTQAKRKRIIAYQFKGKRYDCGSVEGYIEASNAYYKKRLLEHHHHHH,soluble
6,MIKKLPLFIIVCLLAISSQALAETELEIEGLEGPLLSNVEAYISGIPEEDYSVSLRFQARLQESITDALKALGYYQSTTTFVVEGDTSDRTLLVNIDAGQPVIIYVSDIVISGEAAADEDFINAVDNSGLNLGQVINHGRYESLKSTLQNLALRKGYFDGDFTTNRLEIAPGRHQAIVRIHYDSGKRYSFGETSIDGSQIEEKRVRSIIPFQAGDPYLASQVGELNQYLSNTEWFSSVYVEPDIDAVGKTYQLPMKVHLSPQVRNQLETSIGYATDVGARGKIRWKKPWLNPEGHSLDTALSISKPEQEATISYKIPLEQVLKDYYVVKYGLKNVDNNDTDSLESNLAFERHWVYDSGWHRTIYTRFLYEEFTQGVQDGTAWLVLPGISFSKSRSRGGTMPMWGDKKAFTIEATDQALTSDVKLLRLQAQGAIVRSIGENHRGVARADIGAIYTDDFYKLPPSIRFFAGGDNSIRGYGYEEVSPKDSEGYLTGGQYMATASLEYQYRVVGNWWVATFVDYGDAWLDTPDWKMGTGVGIRWASPVGPVRLDFAWGLDAEPGDEFKIHFTLGPEVLEHHHHHH,soluble
7,MIKLVFRYSPTKTVDGFNELAFGLGDGLPWGRVKKDLQNFKARTEGTIMIMGAKTFQSLPTLLPGRSHIVVCDLARDYPVTKDGDLAHFYITWEQYITYISGGEIQVSSPNAPFETMLDQNSKVSVIGGPALLYAALPYADEVVVSRIVKRHRVNSTVQLDASFLDDISKREMVETHWYKIDEVTTLTESVYK,soluble
8,MIKNILILSSNNTGHGHKSITESLLEQFSHYPDVNVHVIDGFTLAGNFGLRIGKLYGSVTRNAKELWKLVWELSLKKPSLLNDFTEVAIKDNFLKLICNIKPDLILSVHPNFNGSVLNILEDYNIKVPFVTLLADIVSITPLWADPRADYIICPSKESKFKCLEFGVSESKLIETGFPVRQKFLKHLEKNGENNTQNIKKYTGDRPLECLIMSGGEGSGNMSRIASILLKNFNCRVKIVTGRNRLLKRRLERTIGERFGDRVEIYGFTENIQDLMLSSDIAFTRGSPNVMMEAVACNVPLIITGNLPGQEEGNPAYMQKYNLGVVCKDVRKLRHTVNELLENNGEKLNRIKQSQKEFLNPNVAKEIVSFLLSIDKQEEPCFPEDLFSGDFPRFWELHKRISMSHNKKIILKRHKKIGTKQK,soluble
